Measured values: patent US20210388087A1 (Chugai, published 2021)

T1: Human CD3eg linker (human)
T1 construct: Single chain: epsilon and gamma subunits of human CD3 joined by a 29-mer linker, Flag-tag at the C-terminus; also called recombinant human CD3
T1 chain: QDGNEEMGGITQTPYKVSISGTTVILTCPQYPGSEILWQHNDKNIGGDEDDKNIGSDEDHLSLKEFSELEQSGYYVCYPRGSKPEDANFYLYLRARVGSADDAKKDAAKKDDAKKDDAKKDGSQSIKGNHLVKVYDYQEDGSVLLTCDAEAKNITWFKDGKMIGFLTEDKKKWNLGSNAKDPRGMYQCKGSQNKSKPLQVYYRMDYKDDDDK


Biological target: T1, Human CD3eg linker
Assay: Biacore SPR, vs template H183/L072

Binder	fold change of affinity [fold]
H183/L072 VH G26A (antibody, name in Kabat numbering, V domains shown) VH: QVQLVESGGGLVQPGRSLRLSCAASAFTFSNAWMHWVRQAPGKGLEWVAQIKDKGNAYAAYYAPSVKGRFTISRDDSKNSIYLQMNSLKTEDTAVYYCHYVHYASASTVLPAFGVDAWGQGTTVTVSS VL: DIVMTQSPLSLPVTPGEPASISCQASQELVHMNRNTYLHWYQQKPGQAPRLLIYKVSNRFPGVPDRFSGSGSGTDFTLKISRVEAEDVGVYYCAQGTSVPFTFGQGTKLEIK	0.5
H183/L072 VH A32F (antibody, name in Kabat numbering, V domains shown) VH: QVQLVESGGGLVQPGRSLRLSCAASGFTFSNFWMHWVRQAPGKGLEWVAQIKDKGNAYAAYYAPSVKGRFTISRDDSKNSIYLQMNSLKTEDTAVYYCHYVHYASASTVLPAFGVDAWGQGTTVTVSS VL: DIVMTQSPLSLPVTPGEPASISCQASQELVHMNRNTYLHWYQQKPGQAPRLLIYKVSNRFPGVPDRFSGSGSGTDFTLKISRVEAEDVGVYYCAQGTSVPFTFGQGTKLEIK	0
H183/L072 VH A32L (antibody, name in Kabat numbering, V domains shown) VH: QVQLVESGGGLVQPGRSLRLSCAASGFTFSNLWMHWVRQAPGKGLEWVAQIKDKGNAYAAYYAPSVKGRFTISRDDSKNSIYLQMNSLKTEDTAVYYCHYVHYASASTVLPAFGVDAWGQGTTVTVSS VL: DIVMTQSPLSLPVTPGEPASISCQASQELVHMNRNTYLHWYQQKPGQAPRLLIYKVSNRFPGVPDRFSGSGSGTDFTLKISRVEAEDVGVYYCAQGTSVPFTFGQGTKLEIK	0
H183/L072 VH A32I (antibody, name in Kabat numbering, V domains shown) VH: QVQLVESGGGLVQPGRSLRLSCAASGFTFSNIWMHWVRQAPGKGLEWVAQIKDKGNAYAAYYAPSVKGRFTISRDDSKNSIYLQMNSLKTEDTAVYYCHYVHYASASTVLPAFGVDAWGQGTTVTVSS VL: DIVMTQSPLSLPVTPGEPASISCQASQELVHMNRNTYLHWYQQKPGQAPRLLIYKVSNRFPGVPDRFSGSGSGTDFTLKISRVEAEDVGVYYCAQGTSVPFTFGQGTKLEIK	0.1
H183/L072 VH A32E (antibody, name in Kabat numbering, V domains shown) VH: QVQLVESGGGLVQPGRSLRLSCAASGFTFSNEWMHWVRQAPGKGLEWVAQIKDKGNAYAAYYAPSVKGRFTISRDDSKNSIYLQMNSLKTEDTAVYYCHYVHYASASTVLPAFGVDAWGQGTTVTVSS VL: DIVMTQSPLSLPVTPGEPASISCQASQELVHMNRNTYLHWYQQKPGQAPRLLIYKVSNRFPGVPDRFSGSGSGTDFTLKISRVEAEDVGVYYCAQGTSVPFTFGQGTKLEIK	0.1
H183/L072 VH A32G (antibody, name in Kabat numbering, V domains shown) VH: QVQLVESGGGLVQPGRSLRLSCAASGFTFSNGWMHWVRQAPGKGLEWVAQIKDKGNAYAAYYAPSVKGRFTISRDDSKNSIYLQMNSLKTEDTAVYYCHYVHYASASTVLPAFGVDAWGQGTTVTVSS VL: DIVMTQSPLSLPVTPGEPASISCQASQELVHMNRNTYLHWYQQKPGQAPRLLIYKVSNRFPGVPDRFSGSGSGTDFTLKISRVEAEDVGVYYCAQGTSVPFTFGQGTKLEIK	0.3
H183/L072 VH A32H (antibody, name in Kabat numbering, V domains shown) VH: QVQLVESGGGLVQPGRSLRLSCAASGFTFSNHWMHWVRQAPGKGLEWVAQIKDKGNAYAAYYAPSVKGRFTISRDDSKNSIYLQMNSLKTEDTAVYYCHYVHYASASTVLPAFGVDAWGQGTTVTVSS VL: DIVMTQSPLSLPVTPGEPASISCQASQELVHMNRNTYLHWYQQKPGQAPRLLIYKVSNRFPGVPDRFSGSGSGTDFTLKISRVEAEDVGVYYCAQGTSVPFTFGQGTKLEIK	0.5
H183/L072 VH A32K (antibody, name in Kabat numbering, V domains shown) VH: QVQLVESGGGLVQPGRSLRLSCAASGFTFSNKWMHWVRQAPGKGLEWVAQIKDKGNAYAAYYAPSVKGRFTISRDDSKNSIYLQMNSLKTEDTAVYYCHYVHYASASTVLPAFGVDAWGQGTTVTVSS VL: DIVMTQSPLSLPVTPGEPASISCQASQELVHMNRNTYLHWYQQKPGQAPRLLIYKVSNRFPGVPDRFSGSGSGTDFTLKISRVEAEDVGVYYCAQGTSVPFTFGQGTKLEIK	0.5
H183/L072 VH A32D (antibody, name in Kabat numbering, V domains shown) VH: QVQLVESGGGLVQPGRSLRLSCAASGFTFSNDWMHWVRQAPGKGLEWVAQIKDKGNAYAAYYAPSVKGRFTISRDDSKNSIYLQMNSLKTEDTAVYYCHYVHYASASTVLPAFGVDAWGQGTTVTVSS VL: DIVMTQSPLSLPVTPGEPASISCQASQELVHMNRNTYLHWYQQKPGQAPRLLIYKVSNRFPGVPDRFSGSGSGTDFTLKISRVEAEDVGVYYCAQGTSVPFTFGQGTKLEIK	0

Continued, values first:

fold change of affinity [fold]	Binder
0.4	H183/L072 VH A32S (antibody, name in Kabat numbering, V domains shown) VH: QVQLVESGGGLVQPGRSLRLSCAASGFTFSNSWMHWVRQAPGKGLEWVAQIKDKGNAYAAYYAPSVKGRFTISRDDSKNSIYLQMNSLKTEDTAVYYCHYVHYASASTVLPAFGVDAWGQGTTVTVSS VL: DIVMTQSPLSLPVTPGEPASISCQASQELVHMNRNTYLHWYQQKPGQAPRLLIYKVSNRFPGVPDRFSGSGSGTDFTLKISRVEAEDVGVYYCAQGTSVPFTFGQGTKLEIK
0.5	H183/L072 VH A32N (antibody, name in Kabat numbering, V domains shown) VH: QVQLVESGGGLVQPGRSLRLSCAASGFTFSNNWMHWVRQAPGKGLEWVAQIKDKGNAYAAYYAPSVKGRFTISRDDSKNSIYLQMNSLKTEDTAVYYCHYVHYASASTVLPAFGVDAWGQGTTVTVSS VL: DIVMTQSPLSLPVTPGEPASISCQASQELVHMNRNTYLHWYQQKPGQAPRLLIYKVSNRFPGVPDRFSGSGSGTDFTLKISRVEAEDVGVYYCAQGTSVPFTFGQGTKLEIK
0.9	H183/L072 VH A32V (antibody, name in Kabat numbering, V domains shown) VH: QVQLVESGGGLVQPGRSLRLSCAASGFTFSNVWMHWVRQAPGKGLEWVAQIKDKGNAYAAYYAPSVKGRFTISRDDSKNSIYLQMNSLKTEDTAVYYCHYVHYASASTVLPAFGVDAWGQGTTVTVSS VL: DIVMTQSPLSLPVTPGEPASISCQASQELVHMNRNTYLHWYQQKPGQAPRLLIYKVSNRFPGVPDRFSGSGSGTDFTLKISRVEAEDVGVYYCAQGTSVPFTFGQGTKLEIK
0	H183/L072 VH A32Y (antibody, name in Kabat numbering, V domains shown) VH: QVQLVESGGGLVQPGRSLRLSCAASGFTFSNYWMHWVRQAPGKGLEWVAQIKDKGNAYAAYYAPSVKGRFTISRDDSKNSIYLQMNSLKTEDTAVYYCHYVHYASASTVLPAFGVDAWGQGTTVTVSS VL: DIVMTQSPLSLPVTPGEPASISCQASQELVHMNRNTYLHWYQQKPGQAPRLLIYKVSNRFPGVPDRFSGSGSGTDFTLKISRVEAEDVGVYYCAQGTSVPFTFGQGTKLEIK
0.6	H183/L072 VH A32R (antibody, name in Kabat numbering, V domains shown) VH: QVQLVESGGGLVQPGRSLRLSCAASGFTFSNRWMHWVRQAPGKGLEWVAQIKDKGNAYAAYYAPSVKGRFTISRDDSKNSIYLQMNSLKTEDTAVYYCHYVHYASASTVLPAFGVDAWGQGTTVTVSS VL: DIVMTQSPLSLPVTPGEPASISCQASQELVHMNRNTYLHWYQQKPGQAPRLLIYKVSNRFPGVPDRFSGSGSGTDFTLKISRVEAEDVGVYYCAQGTSVPFTFGQGTKLEIK
0.4	H183/L072 VH A32Q (antibody, name in Kabat numbering, V domains shown) VH: QVQLVESGGGLVQPGRSLRLSCAASGFTFSNQWMHWVRQAPGKGLEWVAQIKDKGNAYAAYYAPSVKGRFTISRDDSKNSIYLQMNSLKTEDTAVYYCHYVHYASASTVLPAFGVDAWGQGTTVTVSS VL: DIVMTQSPLSLPVTPGEPASISCQASQELVHMNRNTYLHWYQQKPGQAPRLLIYKVSNRFPGVPDRFSGSGSGTDFTLKISRVEAEDVGVYYCAQGTSVPFTFGQGTKLEIK
0.9	H183/L072 VH A54D (antibody, name in Kabat numbering, V domains shown) VH: QVQLVESGGGLVQPGRSLRLSCAASGFTFSNAWMHWVRQAPGKGLEWVAQIKDKGNDYAAYYAPSVKGRFTISRDDSKNSIYLQMNSLKTEDTAVYYCHYVHYASASTVLPAFGVDAWGQGTTVTVSS VL: DIVMTQSPLSLPVTPGEPASISCQASQELVHMNRNTYLHWYQQKPGQAPRLLIYKVSNRFPGVPDRFSGSGSGTDFTLKISRVEAEDVGVYYCAQGTSVPFTFGQGTKLEIK
0	H183/L072 VH A32P (antibody, name in Kabat numbering, V domains shown) VH: QVQLVESGGGLVQPGRSLRLSCAASGFTFSNPWMHWVRQAPGKGLEWVAQIKDKGNAYAAYYAPSVKGRFTISRDDSKNSIYLQMNSLKTEDTAVYYCHYVHYASASTVLPAFGVDAWGQGTTVTVSS VL: DIVMTQSPLSLPVTPGEPASISCQASQELVHMNRNTYLHWYQQKPGQAPRLLIYKVSNRFPGVPDRFSGSGSGTDFTLKISRVEAEDVGVYYCAQGTSVPFTFGQGTKLEIK
0	H183/L072 VH A32T (antibody, name in Kabat numbering, V domains shown) VH: QVQLVESGGGLVQPGRSLRLSCAASGFTFSNTWMHWVRQAPGKGLEWVAQIKDKGNAYAAYYAPSVKGRFTISRDDSKNSIYLQMNSLKTEDTAVYYCHYVHYASASTVLPAFGVDAWGQGTTVTVSS VL: DIVMTQSPLSLPVTPGEPASISCQASQELVHMNRNTYLHWYQQKPGQAPRLLIYKVSNRFPGVPDRFSGSGSGTDFTLKISRVEAEDVGVYYCAQGTSVPFTFGQGTKLEIK
0.1	H183/L072 VH A32W (antibody, name in Kabat numbering, V domains shown) VH: QVQLVESGGGLVQPGRSLRLSCAASGFTFSNWWMHWVRQAPGKGLEWVAQIKDKGNAYAAYYAPSVKGRFTISRDDSKNSIYLQMNSLKTEDTAVYYCHYVHYASASTVLPAFGVDAWGQGTTVTVSS VL: DIVMTQSPLSLPVTPGEPASISCQASQELVHMNRNTYLHWYQQKPGQAPRLLIYKVSNRFPGVPDRFSGSGSGTDFTLKISRVEAEDVGVYYCAQGTSVPFTFGQGTKLEIK
0	H183/L072 VH A32M (antibody, name in Kabat numbering, V domains shown) VH: QVQLVESGGGLVQPGRSLRLSCAASGFTFSNMWMHWVRQAPGKGLEWVAQIKDKGNAYAAYYAPSVKGRFTISRDDSKNSIYLQMNSLKTEDTAVYYCHYVHYASASTVLPAFGVDAWGQGTTVTVSS VL: DIVMTQSPLSLPVTPGEPASISCQASQELVHMNRNTYLHWYQQKPGQAPRLLIYKVSNRFPGVPDRFSGSGSGTDFTLKISRVEAEDVGVYYCAQGTSVPFTFGQGTKLEIK
